Reference: publication PMC2629652 (FEBS letters, 2008)
Read-outs that look alike come from different tables or passages of the source.

T1: FprA1 (Clostridium acetobutylicum, UniProt Q97K92)
T1 sequence (Q97K92 2-392): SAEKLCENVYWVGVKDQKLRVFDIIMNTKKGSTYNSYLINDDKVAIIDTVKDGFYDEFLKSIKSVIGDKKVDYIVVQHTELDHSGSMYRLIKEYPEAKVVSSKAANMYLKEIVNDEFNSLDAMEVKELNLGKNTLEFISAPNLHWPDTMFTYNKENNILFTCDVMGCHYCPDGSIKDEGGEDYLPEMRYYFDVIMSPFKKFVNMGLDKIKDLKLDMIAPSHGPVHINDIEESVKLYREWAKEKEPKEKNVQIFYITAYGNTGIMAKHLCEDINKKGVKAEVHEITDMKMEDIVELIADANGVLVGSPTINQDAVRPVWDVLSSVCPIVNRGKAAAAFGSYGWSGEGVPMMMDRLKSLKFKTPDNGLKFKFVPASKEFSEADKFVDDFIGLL


Columns and labels:
[1] = target: T1, FprA1; assay: TLC of the flavin cofactor; assay type: binding; settings: co-purified oxidized flavin, 378 and 450 nm bands
[2] = target: the molecule itself; assay: SEC
[3] = target: the molecule itself; assay: SEC; remark: listed apart in the source

Molecule	TLC of the flavin cofactor; UV-visible absorption of purified protein [1]	stoichiometry N [2]	stoichiometry N [3]
Cc1cc2nc3c(=O)[nH]c(=O)nc-3n(C[C@H](O)[C@H](O)[C@H](O)COP(=O)(O)O)c2cc1C [FMN]	TLC analysis identified FMN as the flavin cofactor in both FprA1 and FprA2		
C. acetobutylicum flavo-diiron protein FprA2 (enzyme, UniProt Q97GC0 1-400, looked up) MPAIKIKDNIFSVGVLNPSLRIFDIIMKTEYGTSYNAYLIKGKKNVLIDTVHGRFFDEYLENIKSVIDPSSIDYVIMNHCEPDHSGSLARLYEVAPQIKVIASNAGKIYLKNITNKETLDVKAVKTNDTLDIGNGKVLKFAIAPFLHWPDSMFTILEEDKIAFTCDFLGCHFCEPRMFDTKITYMPKYEKSFKEYYDAIFSPFKPYVVKGLDILDALDLDFIATSHGPILTREGLLAASKQKYRDLSSEIQSTTKYIPIFYCSAYGNTEILANEIASGIKSVLNDANIEMLDIINYDYSDLKEKINICDAFMLGTPTINKDALFPIWELIGGIDAVNCKNKPASAFGSFGWSGEAIPFVISRLKELKLKVFQDGFTCLFVPSEDDIKKAFKFGEDFAKSI		2	4
C. acetobutylicum flavo-diiron protein FprA1 (enzyme, UniProt Q97K92 1-392, looked up) MSAEKLCENVYWVGVKDQKLRVFDIIMNTKKGSTYNSYLINDDKVAIIDTVKDGFYDEFLKSIKSVIGDKKVDYIVVQHTELDHSGSMYRLIKEYPEAKVVSSKAANMYLKEIVNDEFNSLDAMEVKELNLGKNTLEFISAPNLHWPDTMFTYNKENNILFTCDVMGCHYCPDGSIKDEGGEDYLPEMRYYFDVIMSPFKKFVNMGLDKIKDLKLDMIAPSHGPVHINDIEESVKLYREWAKEKEPKEKNVQIFYITAYGNTGIMAKHLCEDINKKGVKAEVHEITDMKMEDIVELIADANGVLVGSPTINQDAVRPVWDVLSSVCPIVNRGKAAAAFGSYGWSGEGVPMMMDRLKSLKFKTPDNGLKFKFVPASKEFSEADKFVDDFIGLL			2
